Laboratory results as given in publication PMC12247033, “Exploring the Stability and Substrate Profile of Transaminase from Silicibacter pomeroyi with Ancestral Sequence Reconstruction” (Chembiochem, 2025).

B1: N49 (synthetic construct) (protein)
chain: MSMSTITNHMPTAELQALDAAHHMHPFTTNNELAEKGARVITRAKGVWLTDSEGEEILDAMAGLWCVNIGYGRDELAEVAARQMRELPYYNTFFQTTHVPAIALAAKLAELAPGDLNHVFFAGGGSEANDTNIRMVRTYWAEKGKPEKNIIISRKNAYHGSTVGSASLGGMAGMHAQGGLPIPDIHHIDQPNWWAEGRPGDTGMTPEEFGLARARELEQAILELGEDRVAAFIAEPVQGAGGVIVAPDTYWPEIQRICDKYEILLIADEVICGFGRTGNWFGSQTMGIRPHIMTIAKGLSSGYAPIGGSIVCDEVAEVIIGGKCEFNHGYTYSGHPVAAAVALENLRILEEENIIDHVRNVAAPYLKEKWEALTDHPLVGEAKIVGMMGSIALTPDKATRAAFASEPGTVGYICRERCFANNLVMRHVGDRMIISPPLVITPEEIDTLIERARKSLDEAHAELKRQGLMKAAG
notes: pET22b(+), E. coli BL21(DE3), Ni-NTA purified
B2: N50 (synthetic construct) (protein)
chain: MSMSTITNHMPTAELQALDAAHHMHPFSTNNELAEEGVRVITRAKGVWLTDSEGEEILDAMAGLWCVNIGYGRDELAEVAARQMRELPYYNTFFKTTHVPAIALAQKLAELAPGDLNHVFFAGGGSEANDTNIRMVRTYWAEKGKPEKNVIISRKNAYHGSTVGSASLGGMAGMHAQGGIPIPDIHHINQPNWWAEGRPGDTGMTPEEFGLARARELEEAILELGEDRVAAFIAEPVQGAGGVIVAPDTYWPEIQRICDKYEILLIADEVICGFGRTGNWFGSQTMGIRPHIMTIAKGLSSGYAPIGGSIVCDEVAEVIIGGKCEFNHGYTYSGHPVAAAVALENLRILEEENIIDHVRNVAAPYLKEKWEALTDHPLVGEAKIVGMMGSIALTPDKATRAKFASEPGTIGYICRERCFANNLVMRHVGDRMIISPPLVITPEEIDEMFVRIRKSLDEAHAEILRQGLMKAAG
notes: as for B1
B3: Sp-ATA (Ruegeria pomeroyi DSS-3) (protein)
chain: MATITNHMPTAELQALDAAHHLHPFSANNALGEEGTRVITRARGVWLNDSEGEEILDAMAGLWCVNIGYGRDELAEVAARQMRELPYYNTFFKTTHVPAIALAQKLAELAPGDLNHVFFAGGGSEANDTNIRMVRTYWQNKGQPEKTVIISRKNAYHGSTVASSALGGMAGMHAQSGLIPDVHHINQPNWWAEGGDMDPEEFGLARARELEEAILELGENRVAAFIAEPVQGAGGVIVAPDSYWPEIQRICDKYDILLIADEVICGFGRTGNWFGTQTMGIRPHIMTIAKGLSSGYAPIGGSIVCDEVAHVIGKDEFNHGYTYSGHPVAAAVALENLRILEEENILDHVRNVAAPYLKEKWEALTDHPLVGEAKIVGMMASIALTPNKASRAKFASEPGTIGYICRERCFANNLIMRHVGDRMIISPPLVITPAEIDEMFVRIRKSLDEAQAEIEKQGLMKSAA
notes: wild type, pET22b(+), E. coli BL21(DE3), Ni-NTA purified (His-tag), homodimer

How the values were obtained:
purified protein [1] = substrate: C[C@H](N)c1ccccc1; experiment: purified protein; assay type: biochemical, synthetic construct; settings: co-substrate sodium pyruvate; 5 mM PLP; (S)-PEA 0.1-15 mM
purified protein [2] = substrate: C[C@H](N)c1ccccc1; experiment: purified protein; assay type: biochemical, Ruegeria pomeroyi; settings: co-substrate sodium pyruvate; 5 mM PLP; (S)-PEA 0.1-15 mM

Row | Protein | Km (purified protein [1]) | kcat (purified protein [1]) | Km (purified protein [2]) | kcat (purified protein [2])
1 | B1 | 2.02 ± 0.19 mM | 1.10 ± 0.03 s⁻¹ |  | 
2 | B2 | 6.22 ± 1.01 mM | 0.39 ± 0.03 s⁻¹ |  | 
3 | B3 |  |  | 3.64 ± 0.31 mM | 6.33 ± 0.19 s⁻¹
